Measurements taken from PMC6765133 (Nucleic Acids Research, 2019).

Target: the molecule itself
Experiment: SEC

Row | Protein | stoichiometry N
1 | Deinococcus geothermalis DdrO (residues 12-140) (natural protein) MGSSHHHHHHSSGLVPRGSHMKLHERLRELRSERGLRLKDVAETAGISVPYLSDLERGRTNPSLETLQTLAGAYSITVHDLLEGVEFYGDSTEGALPKGLADLVADPLLGSQITPDWVRTLSRIELRGKRPRDKQDWYEIYLHLKRILG | 2
2 | DG-DdrO R22A (natural protein) MGSSHHHHHHSSGLVPRGSHMKLHERLRELASERGLRLKDVAETAGISVPYLSDLERGRTNPSLETLQTLAGAYSITVHDLLEGVEFYGDSTEGALPKGLADLVADPLLGSQITPDWVRTLSRIELRGKRPRDKQDWYEIYLHLKRILG | 2
3 | DG-DdrO Y129A (natural protein) MGSSHHHHHHSSGLVPRGSHMKLHERLRELRSERGLRLKDVAETAGISVPYLSDLERGRTNPSLETLQTLAGAYSITVHDLLEGVEFYGDSTEGALPKGLADLVADPLLGSQITPDWVRTLSRIELRGKRPRDKQDWAEIYLHLKRILG | 2
4 | DG-DdrO Y132A (natural protein) MGSSHHHHHHSSGLVPRGSHMKLHERLRELRSERGLRLKDVAETAGISVPYLSDLERGRTNPSLETLQTLAGAYSITVHDLLEGVEFYGDSTEGALPKGLADLVADPLLGSQITPDWVRTLSRIELRGKRPRDKQDWYEIALHLKRILG | 2
